The nature of the data set: soluble on expression in E. coli; label from the status in PepcDB or PDB records.
For “MFRMLNSSFEDDPFFSESILAHRENMRQMIRSFSEPFGRDLLSISDGRGRAHNRRGHNDGEDSLTHTDVSSFQTMDQMVSNMRNYMQKLERNFGQLSVDPNGHSFCSSSVMTYSKIGDEPPKVFQASTQTRRAPGGIKETRKAMRDSDSGLEKMAIGHHIHDRAHVIKKSKNKKTGDEEVNQEFINMNESDAHAFDEEWQSEVLKYKPGRHNLGNTRMRSVGHENPGSRELKRREKPQQSPAIEHGRRSNVLGDKLHIKGSSVKSNKKLEHHHHHH”, the “soluble on expression in E. coli” value was “soluble”.
To “MTSFTGITAVANATNEMAMFKQAMKEVAAHPEWMSSRQIERQRWNPYSMEGGSTCAISGENFAIVASDTRMTQNDINILTRDAEKIQILNDNIILTTSGFYGDVLQLKKVLQSRLHKYRFDYRSDMSVDLCAELLSRNLYYRRFFPYYTGAILAGIDEHGKGAVFSYDPIGCIERLGYSASGAAEPMIIPFLDCQIGHVTLSEGYERPELTLDRAISLMKDSFRGAAEREISTGDKIHLVIAEAGKPVVVKFLPLRED” belongs “not soluble”; to “MGSDKIHHHHHHMSNKPFFYQDPFPLKKDDTEYYLLTSEHVSVAEFEGQEILKVAPEALTLLARQAFHDASFMLRPAHQQQVADILRDPQASENDKYVALQFLRNSDIAAKGVLPTCQDTGTAIIVGKKGQRVWTGGGDEAALARGVYNTYIEDNLRYSQNAALDMYKEVNTGTNLPAQIDLYSVDGDEYKFLCIAKGGGSANKTYLYQETKALLTPGKLKNYLVDKMRTLGTAACPPYHIAFVIGGTSAEANLKTVKLASAKYYDALPTEGNEHGQAFRDIELEKELLLEAQNLGLGAQFGGKYFAHDIRVIRLPRHGASCPVGMGVSCSADRNIKAKINRDGIWIEKLERNPGKYIPEALRQAGEGEAVRVDLNRPMSEILQQLSQYPVSTRLSLNGTIIVGRDIAHAKLKERMDRGEGLPQYIKDHPIYYAGPAKTPEGYASGSLGPTTAGRMDSYVDQLQSQGGSMIMLAKGNRSQQVTDACKKHGGFYLGSIGGPAAVLAQGSIKRLECVEYPELGMEAIWKIEVEDFPAFILVDDKGNDFFQQIQSSQCGAALSNVAALRGGNMIRYFAGERRKRLIRSTPLCCYR”, “not soluble”.
Regarding “MSLVRNMTIASELGYLHVPEGVLIDLKKVDSLRDDEIVLMCTGSQGEPMAALSRMANGDHKVQVGHGDTVILASSLIPGNENAVFRIINGLTRLGARVVHGGNAKVHVSGHASAGELLYCYNVLKPKNVMPVHGEVRHLVANGALAVRTGVPADRVVLAEDGVVVDLVDGRASVVGAVPCGYVYVDGSSVGEITDAELKDRRILGEEGFVSVFAVVDSATGKVLAGPQILARGFAEDDKVFQDIQPEVVKALEDAIAGGATDTHQLQQVMRRVIGRWVSNRLRRRPMIVPVVVEAEGHHHHHH”, the “soluble on expression in E. coli” value was “soluble”.
To “MLERILSRENLIQALERVEKNKGSYGVDEMDVKSLRLHLHENWTSIRNEIIEGSYFPKPVRRVEIPKPNGGVRKLGIPTVMDRFLQQAIAQILTQLYDPTFSERSFGFRPHRRGHNAVRQAKQWMKEGYRWVVDIDLEKFFDKVNHDRLMRKLSSRIQDPRVLQLIRRYLQTGVMERGLVSPNTEGTPQGGPLSPLLSNIVLDELDNELEKRGLKFVRYADDCNIYVRSKRAGLRIMESVTSFIENRLKLKVNREKSAVDRPWNRKFLGFSFTRGKDPKMRVSKESVKRLKQRIRELTSRRHSMKMSDRLRRLNRYLTGWLGYYQVVDTPSILAQIDAWIRRRLRMIRWKEWKTTSARQKNLVRLGIKKAKAWQWANSRKGYWRVAHSPIMDYALNSEYWKGQGLMSLAERYQTRRWTLEHHHHHH” belongs “soluble”; to “MGSDKIHHHHHHMKKIRFAAIGLAHNHIYDMCQQLIDAGAELAGVFESDSDNRAKFTSLFPSVPFAASAEQLITDASIDLIACAVIPCDRAELALRTLDAGKDFFTAKPPLTTLEQLDAVQRRVAETGRKFAVYFNERINVDSALFAGELVQRGEIGRVIQTMGVGPHRERGARPDWFYQKRQYGGILCDIGIHQIEQFLYFTGNTNARVVTSQTANYHHPHHPEFEDFGDAMLLGDNGATGYFRCDWFTPDGLSVWGDGRLTILGTEGYIEIRKYVDLTRGESNVVYLVNGKGEQRFTPAGSVERAFFPDFLRDCRERTENAMSQSHIFKATELSILAQQAANKIA”, “not soluble”; to “MGKTLFEKVWNAHVVTEVKDGPSILYIDKQLIHEVTSPQAFAGIEKRGIGVFRPERTLATPDHNVPTKGQNLPIVEDLSRFQVDKLTENCNKFGVTLYGLGHASQGVVHVVGPETGTTLPGMTIVCGDS”, “not soluble”.
“MGSSHHHHHHSSGLVPRGSHMASMTGGQQGRDPFESYNPEFFLYDIFLKFCLKYIDGEICHDLFLLLGKYNILPYDTSNDSIYACTNIKHLDFINPFGVAAGFDKNGVCIDSILKLGFSFIEIGTITPRGQTGNAKPRIFRDVESRSIINSCGFNNMGCDKVTENLILFRKRQEEDKLLSKHIVGVSIGKNKDTVNIVDDLKYCINKIGRYADYIAINVSSPNTPGLRDNQEAGKLKNIILSVKEEIDNLEKNNIMNDEFLWFNTTKKKPLVFVKLAPDLNQEQKKEIADVLLETNIDGMIISNTTTQINDIKSFENKKGGVSGAKLKDISTKFICEMYNYTNKQIPIIASGGIFSGLDALEKIEAGASVCQLYSCLVFNGMKSAVQIKRELNHLLYQRGYYNLKEAIGRKHSKS”: the “soluble on expression in E. coli” value is given as “soluble”.
To “AIAASLSDQSGSIGSEQTRPSGAIPVESLPPQALEQLIASLQQEVEQLADALQQLNFANQRWTLCKQSIEAFAEETTRVDLPGAQSRATDAISSTASAKPETSVEVNQNQRLLVPLSRSLYVLGRVINPERCLIDIGTGYHVERKLADAAEFFDRRLKHVRGSMRQLTLKIDQNQQQMQTIREILVRKLAGAQQAAEHT” belongs “soluble”; to “MAFSGSQAPYLSPAVPFSGTIQGGLQDGLQITVNGTVLSSSGTRFAVNFQTGFSGNDIAFHFNPRFEDGGYVVCNTRQNGSWGPEERKTHMPFQKGMPFDLCFLVQSSDFKVMVNGILFVQYFHRVPFHRVDTISVNGSVQLSYISFQNPRTVPVQPAFSTVPFSQPVCFPPRPRGRRQKPPGVWPANPAPITQTVIHTVQSAPGQMFSTPAIPPMMYPHPAYPMPFITTILGGLYPSKSILLSGTVLPSAQRFHINLCSGNHIAFHLNPRFDENAVVRNTQIDNSWGSEERSLPRKMPFVRGQSFSVWILCEAHCLKVAVDGQHLFEYYHRLRNLPTINRLEVGGDIQLTHVQT”, “soluble”; to “MSLATAPPFERIETTGLQTLTPRELDELIESVAAVDNPTPLVDDESFLRRVTLDAIGRVPTEQEWKTFMEDPASNKRAKLIDRLLASEEYGANWANYWSDVFSYRTPSPELTFLSYDTPKHWLAEQLNNGVGWDQVSYQMLTGVGKVADNPAAFYVGYHQADVSRLAGESTRIFLGAQIQCAECHDHPFVDIPQERFHQMAAFFVRTKAELPWNDEGHHHHHH”, “soluble”.
Consider “MNRSTISPVEARQQFRAGLIQPTSGWSAGFAQANLISMPQDLAYDFLLFAQRNPKPCPILEVLNAGETFGGIFGSNATEADIRTDAPQYRIYAHGELIDSPASAVDYWRDDLVSFIIGCSFTFEHPMVQAGVPVRHLEAGRNVPMYETSLACRPAGSLSGNLVVSLRMIPASQVADAVRITSRYPAVHGAPVHIGDPSLIGIDDINNPDFGDAPLSEPSDVPVFWACGVTPQAMVMSSKPPLAITHAPGHMLITDAPDLGFQVPLEHHHHHH”, for which the “soluble on expression in E. coli” value is “not soluble”.
To “MELLQGKTFVVMGVANQRSIAWGIARSLHNAGAKLIFTYAGERLERNVRELADTLEGQESLVLPCDVTNDEELTACFETIKQEVGTIHGVAHCIAFANRDDLKGEFVDTSRDGFLLAQNISAFSLTAVAREAKKVMTEGGNILTLTYLGGERVVKNYNVMGVAKASLEASVKYLANDLGQHGIRVNAISAGPIRTLSAKGVGDFNSILREIEERAPLRRTTTQEEVGDTAVFLFSDLARGVTGENIHVDSGYHILG” belongs “soluble”; to “MLEEPFFPYQSLASDLLAFLPEDSTDGSHDLSHIHRVWMNVRRLQDKEGGDLEALLAATLLHDCVAVEKNSPLRSQASTLSANKAASILQRMGWPAPRIELVAHAVQAHSFSAGVEPLTLEARILQDSDRLDAIGMIGVARCFYIAGRMGSALYDITNPTAIGRPYQDKRFTIEHFHTKLLSLASGFQTVEGARLAAVRHARLKDFLDGFMEEIGAPDLEHHHHHH”, “soluble”.
To “SKAVIVIPARYGSSRLPGKPLLDIVGKPMIQHVYERALQVAGVAEVWVATDDPRVEQAVQAFGGKAIMTRNDHESGTDRLVEVMHKVEADIYINLQGDEPMIRPRDVETLLQGMRDDPALPVATLCHAISAAEAAEPSTVKVVVNTRQDALYFSRSPIPYPRNAEKARYLKHVGIYAYRRDVLQNYSQLPESMPEQAESLEQLRLMNAGINIRTFEVAATGPGVDTPACLEKVRALMAQELAENA” belongs “soluble”; to “MTIGQVNGRARIKSECGKDQKCMPLEDKWLLVPAFLKVRGLVKQHLVSFDHFVQEEIRSIMLSNQKITSDANPNFYLKYLDIRIGKPSSEEGLNMTHDKITPQECRLRDMTYSAPISVDIEYTRGNQRVFKKDLIIGRMPIMLRSSKCILRDLAEEELARVQECPYDPGGYFVVKGSEKVILIQEQLSKNRIMVGRNSSKELQCEVLSSTSERKSKTYVTMKKGKYSVRHNQLTDDVPVSIIFKAMGVESDFDIVSTIGHEEKYVSAFAQTLEESINAGVYTQQQALAYVTSKVKARKFTPFGSLPGTSVSVLTPPKEHEAVDFLSNSMITHIACPDGNFKMKAIYLGLMTRRLIQTELGENGLDDRDFYGNKRLELAGSLLSLLFEDVFKRFNSELKRIADNALMKTMAAPLDIVKHMRQDMITNTIVNAMSTGNWIIKRFRMERLGVTQVLSRLSYISALGMMTRINSTFEKTRKVSGPRSLQPSQWGMLCPSDTPEGEACGLVKNLALISHITTDSDEKPVLRLLLNSGVEDLHNVHFSHVNKPENTLIFLNGVLIGTAVDPERVVKAVRDLRRSGLLSEFVSVSRSLTNRSVFISSDGGRLCRPYIIVKNGTPMLTQAHVQELKEGKMIFEDFVDDGIVEYLDVNEMNDALIAVYGREIGPETTHLEIEPFTLLGVCAGLIPYPHHNQSPRNTYQCAMGKQAMGTIAYNQQKRIDSIMYLLCYPQRPLVKSKTIELTNFEKLPAGANGIIAVMSYSGYDIEDALVLNKASLDRGYGRCLVYKHVKGTAKKYPNQTFDRLLGPALDPNTRKPIFKHKNLDQEGIVFAGARIMPKQTIINKHMPVVSGESGPGASASANTIGIAGRQVDYKDVSITYKTPTPSYAERVLLTYNEDEAHLFKVLLRQTRRPELGDKFSSRHGQKGVCGLIAQQEDMPFNDLGMVPDMIMNPHGYPSRMTVGKLMELLSGKAGVVNGTYHYGTAFGGDQVKDVCEELAACGYNYMGKDMLTSGITGQPLSAYIYFGPIYYQKLKHMVLDKMHARARGPRAALTRQPTEGRSREGGLRLGEMERDCLIAYGASMLLIERLMVSSDEFKVDVCTGCGVIGSKGWCQKCRSSKSMANIKIPYACKLLFQELQSMNIVPRLDLARYTE”, “not soluble”.
To “MGSDKIHHHHHHMSPDVDIKALRCFLALAQELSFGRAAERMNLTQPSLSAQIRKLEDQVGHRLFERTTRAVHLSPTGKALIEQARTFVSQADAFAAHLSAWRERPDRRMVLGAPIYTFELPEHGALLSAIARELPDMSLRVDNGFANSLVEGLIKGSVDMAMVVAAAVPHDRYLADMAGEGAGELEMPDGLQRITLSDEQIGLAIPEEHPLASYDIVPPEALSGSVIAMLAPLHGRSLYRPISVWLSAAGATGFLPPEAHAFALERYCREYRIPAISIAQFRPRETGNVVYRPAGGLNVRTELAVLRSTRKQRSSIEERLWDLASSLGR” belongs “not soluble”; to “LRSVFVSGFPRGVDSAQLSEYFLAFGPVASVVMDKDKGVFAIVEMGDVGAREAVLSQSQHSLGGHRLRVRPREQKEFQSPASKSPKG”, “soluble”.

These data come from the DeepSol protein solubility set.
